Reference: article PMC3708727 (Molecular Biology of the Cell, 2013)

T1: His-tagged dAbp1-237-313 fragment (Dictyostelium discoideum, UniProt Q557J6 237-313)
T1 sequence (looked up): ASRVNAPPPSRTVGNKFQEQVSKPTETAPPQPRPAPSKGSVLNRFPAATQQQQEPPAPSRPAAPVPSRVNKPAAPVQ

T2: histidine (His)-tagged full-length dAbp1 (Dictyostelium discoideum, UniProt Q557J6 1-481)
T2 sequence (looked up): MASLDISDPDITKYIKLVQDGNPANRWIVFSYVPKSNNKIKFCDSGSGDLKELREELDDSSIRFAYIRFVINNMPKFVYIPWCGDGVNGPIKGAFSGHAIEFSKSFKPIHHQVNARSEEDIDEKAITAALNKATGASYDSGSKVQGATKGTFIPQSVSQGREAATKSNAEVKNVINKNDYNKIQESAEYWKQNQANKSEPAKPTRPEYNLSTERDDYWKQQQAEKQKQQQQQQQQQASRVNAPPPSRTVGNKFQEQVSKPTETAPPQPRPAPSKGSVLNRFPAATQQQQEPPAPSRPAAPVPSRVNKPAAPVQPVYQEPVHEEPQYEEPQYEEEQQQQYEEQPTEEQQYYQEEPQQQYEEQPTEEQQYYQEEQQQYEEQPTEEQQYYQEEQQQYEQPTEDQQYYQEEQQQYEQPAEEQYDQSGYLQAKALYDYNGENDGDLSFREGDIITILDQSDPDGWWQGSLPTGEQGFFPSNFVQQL


How the values were obtained:
[1] = molecular target: rabbit muscle actin filaments (rabbit, UniProt P68135 1-377); test: co-sedimentation
[2] = molecular target: T1, His-tagged dAbp1-237-313 fragment; test: pull-down
[3] = molecular target: T2, histidine (His)-tagged full-length dAbp1; test: pull-down

Row | Binder | Kd in the presence of an equimolar amount of GST-PakB-1-120 [1] | binding result [2] | binding result [3]
1 | GST-dAbp1 (natural protein) MASLDISDPDITKYIKLVQDGNPANRWIVFSYVPKSNNKIKFCDSGSGDLKELREELDDSSIRFAYIRFVINNMPKFVYIPWCGDGVNGPIKGAFSGHAIEFSKSFKPIHHQVNARSEEDIDEKAITAALNKATGASYDSGSKVQGATKGTFIPQSVSQGREAATKSNAEVKNVINKNDYNKIQESAEYWKQNQANKSEPAKPTRPEYNLSTERDDYWKQQQAEKQKQQQQQQQQQASRVNAPPPSRTVGNKFQEQVSKPTETAPPQPRPAPSKGSVLNRFPAATQQQQEPPAPSRPAAPVPSRVNKPAAPVQPVYQEPVHEEPQYEEPQYEEEQQQQYEEQPTEEQQYYQEEPQQQYEEQPTEEQQYYQEEQQQYEEQPTEEQQYYQEEQQQYEQPTEDQQYYQEEQQQYEQPAEEQYDQSGYLQAKALYDYNGENDGDLSFREGDIITILDQSDPDGWWQGSLPTGEQGFFPSNFVQQL | 1.1 ± 0.4 µM |  | 
2 | GST-dAbp1-SH3 domain fusion protein (domain or fragment, Dictyostelium discoideum, UniProt Q557J6 426-481, looked up) QAKALYDYNGENDGDLSFREGDIITILDQSDPDGWWQGSLPTGEQGFFPSNFVQQL |  | binds | binds
